Experimental findings from the Human Domainome abundance scans (Beltran et al. 2025) are described below.

Sequences and labels used below:
B1: Kinesin-like protein KIF16B, residues 1213 to 1273; numbered along this chain, Q96L93 (parent)
chain: ETWTVFRRYSRFREMHKTLKLKYAELAALEFPPKKLFGNKDERVIAERRSHLEKYLRDFFS

± gives the uncertainty stated by the source.

In this data set the parent is B1. In words: abundance fitness (aPCA) (normalised: wild type 0, dead -1); higher = more abundant; growth selection in yeast, the domain comes from the species named. To be noted: Homo sapiens.
As to ETWTVFRRYSRFREMHKTLKLKYAELMALEFPPKKLFGNKDERVIAERRSHLEKYLRDFFS [A27M], the abundance fitness came out at 0.246 ± 0.091. Consider ETWTVFRRYSRFREMHKTLKLKYAELQALEFPPKKLFGNKDERVIAERRSHLEKYLRDFFS [A27Q], for which the abundance fitness turned out to be 0.166 ± 0.09. Take ETWTVFRRYSRFREMHKTLKLKYAELDALEFPPKKLFGNKDERVIAERRSHLEKYLRDFFS [A27D]: the abundance fitness was -0.388 ± 0.11. For ETWTVFRRYSRFREMHKTLKLKYAELVALEFPPKKLFGNKDERVIAERRSHLEKYLRDFFS [A27V], the abundance fitness was -0.041 ± 0.058.

Regarding ETWTVFRRYSRFREMHKTLKLKYAELSALEFPPKKLFGNKDERVIAERRSHLEKYLRDFFS [A27S], the abundance fitness is -0.099 ± 0.069. Consider ETWTVFRRYSRFREMHKTLKLKYAELWALEFPPKKLFGNKDERVIAERRSHLEKYLRDFFS [A27W], for which the abundance fitness was -0.362 ± 0.073. ETWTVFRRYSRFREMHKTLKLKYWELAALEFPPKKLFGNKDERVIAERRSHLEKYLRDFFS [A24W]: the abundance fitness was -0.569 ± 0.12.

ETWTVFRRYSRFREMHKTLKLKYSELAALEFPPKKLFGNKDERVIAERRSHLEKYLRDFFS [A24S]: the abundance fitness is -0.24 ± 0.1. In the case of ETWTVFRRYSRFREMHKTLKLKYFELAALEFPPKKLFGNKDERVIAERRSHLEKYLRDFFS [A24F], the abundance fitness is -0.331 ± 0.17. In the case of ETWTVFRRYSRFREMHKTLKLKYQELAALEFPPKKLFGNKDERVIAERRSHLEKYLRDFFS [A24Q], the abundance fitness is -0.227 ± 0.12.

As for ETWTVFRRYSRFREMHKTLKLKYEELAALEFPPKKLFGNKDERVIAERRSHLEKYLRDFFS [A24E], the abundance fitness was -0.174 ± 0.1. With ETWTVFRRYSRFREMHKTLKLKYRELAALEFPPKKLFGNKDERVIAERRSHLEKYLRDFFS [A24R], the abundance fitness stood at 0.178 ± 0.049. On to ETWTVFRRYSRFREMHKTLKLKYVELAALEFPPKKLFGNKDERVIAERRSHLEKYLRDFFS [A24V], for which the abundance fitness is -0.321 ± 0.095. Regarding ETWTVFRRYSRFREMHKTLKLKYMELAALEFPPKKLFGNKDERVIAERRSHLEKYLRDFFS [A24M], the abundance fitness is -0.107 ± 0.13.

With ETWTVFRRYSRFREMHKTLKLKYGELAALEFPPKKLFGNKDERVIAERRSHLEKYLRDFFS [A24G], the abundance fitness is -0.446 ± 0.11. Regarding ETWTVFRRYSRFREMHKTLKLKYPELAALEFPPKKLFGNKDERVIAERRSHLEKYLRDFFS [A24P], the abundance fitness was -0.518 ± 0.33. For ETWTVFRRYSRFREMHKTLKLKYLELAALEFPPKKLFGNKDERVIAERRSHLEKYLRDFFS [A24L], the abundance fitness was -0.352 ± 0.075. ETWTVFRRYSRFREMHKTLKLKYTELAALEFPPKKLFGNKDERVIAERRSHLEKYLRDFFS [A24T]: the abundance fitness is -0.115 ± 0.1. Consider ETWTVFRRYSRFREMHKTLKLQYAELAALEFPPKKLFGNKDERVIAERRSHLEKYLRDFFS [K22Q], for which the abundance fitness is -0.828 ± 0.16. Take ETWTVFRRYSRFREMHKTLKLMYAELAALEFPPKKLFGNKDERVIAERRSHLEKYLRDFFS [K22M]: the abundance fitness was -0.153 ± 0.1. For the variant ETWTVFRRYSRFREMHKTLKLVYAELAALEFPPKKLFGNKDERVIAERRSHLEKYLRDFFS [K22V], the abundance fitness amounted to 0.03 ± 0.059. On to ETWTVFRRYSRFREMHKTLKLWYAELAALEFPPKKLFGNKDERVIAERRSHLEKYLRDFFS [K22W], for which the abundance fitness was 0.28 ± 0.078. As for ETWTVFRRYSRFREMHKTLKLRYAELAALEFPPKKLFGNKDERVIAERRSHLEKYLRDFFS [K22R], the abundance fitness is -0.354 ± 0.071.

Regarding ETWTVFRRYSRFREMHKTLKLSYAELAALEFPPKKLFGNKDERVIAERRSHLEKYLRDFFS [K22S], the abundance fitness was -1.01 ± 0.22. On to ETWTVFRRYSRFREMHKTLKLYYAELAALEFPPKKLFGNKDERVIAERRSHLEKYLRDFFS [K22Y], for which the abundance fitness was -0.354 ± 0.28. As to ETWTVFRRYSRFREMHKTLKLPYAELAALEFPPKKLFGNKDERVIAERRSHLEKYLRDFFS [K22P], the abundance fitness was -0.921 ± 0.16. The figure for ETWTVFRRYSRFREMHKTLKLTYAELAALEFPPKKLFGNKDERVIAERRSHLEKYLRDFFS [K22T] is -0.207 ± 0.12; for ETWTVFRRYSRFREMHKTLKLKYAELACLEFPPKKLFGNKDERVIAERRSHLEKYLRDFFS [A28C] it is -0.156 ± 0.13; for ETWTVFRRYSRFREMHKTLKLKYAELAFLEFPPKKLFGNKDERVIAERRSHLEKYLRDFFS [A28F] it is -0.116 ± 0.34. Turning to ETWTVFRRYSRFREMHKTLKLKYAELAGLEFPPKKLFGNKDERVIAERRSHLEKYLRDFFS [A28G], the abundance fitness was -0.101 ± 0.072.

Consider ETWTVFRRYSRFREMHKTLKLKYAILAALEFPPKKLFGNKDERVIAERRSHLEKYLRDFFS [E25I], for which the abundance fitness was -0.292 ± 0.18. For ETWTVFRRYSRFREMHKTLKLKYASLAALEFPPKKLFGNKDERVIAERRSHLEKYLRDFFS [E25S], the abundance fitness was -0.238 ± 0.042. Consider ETWTVFRRYSRFREMHKTLKLKYAFLAALEFPPKKLFGNKDERVIAERRSHLEKYLRDFFS [E25F], for which the abundance fitness is -0.224 ± 0.12. In the case of ETWTVFRRYSRFREMHKTLKLKYAVLAALEFPPKKLFGNKDERVIAERRSHLEKYLRDFFS [E25V], the abundance fitness was -0.475 ± 0.063.

As for ETWTVFRRYSRFREMHKTLKLKYAYLAALEFPPKKLFGNKDERVIAERRSHLEKYLRDFFS [E25Y], the abundance fitness was -0.542 ± 0.12.

Turning to ETWTVFRRYSRFREMHKTLKLKYAALAALEFPPKKLFGNKDERVIAERRSHLEKYLRDFFS [E25A], the abundance fitness is -0.309 ± 0.092. As for ETWTVFRRYSRFREMHKTLKLKYAMLAALEFPPKKLFGNKDERVIAERRSHLEKYLRDFFS [E25M], the abundance fitness was -0.409 ± 0.2. Consider ETWTVFRRYSRFREMHKTLKLKYAHLAALEFPPKKLFGNKDERVIAERRSHLEKYLRDFFS [E25H], for which the abundance fitness was -0.749 ± 0.42. Consider ETWTVFRRYSRFREMHKTLKLKYALLAALEFPPKKLFGNKDERVIAERRSHLEKYLRDFFS [E25L], for which the abundance fitness is -0.465 ± 0.084. Regarding ETWTVFRRYSRFREMHKTLKLKYAQLAALEFPPKKLFGNKDERVIAERRSHLEKYLRDFFS [E25Q], the abundance fitness is 0.015 ± 0.12. With ETWTVFRRYSRFREMHKTLKLKYATLAALEFPPKKLFGNKDERVIAERRSHLEKYLRDFFS [E25T], the abundance fitness is -0.468 ± 0.093. Turning to ETWTVFRRYSRFREMHKTLKLKYAGLAALEFPPKKLFGNKDERVIAERRSHLEKYLRDFFS [E25G], the abundance fitness is -0.384 ± 0.068. Take ETWTVFRRYSRFREMHKTLKLKYARLAALEFPPKKLFGNKDERVIAERRSHLEKYLRDFFS [E25R]: the abundance fitness was -0.352 ± 0.06. With ETWTVFRRYSRFREMHKTLKLKYAKLAALEFPPKKLFGNKDERVIAERRSHLEKYLRDFFS [E25K], the abundance fitness is -0.144 ± 0.069.
